Reference: patent US20060172940

Molecular target: T1, synthetic full length mucocidin peptide (46-mer)
T1 chain: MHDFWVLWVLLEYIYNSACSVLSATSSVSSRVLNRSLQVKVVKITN

B1: guinea pig liver transglutaminase (protein)
chain: AEDLILERCDLQLEVNGRDHRTADLCRERLVLRRGQPFWLTLHFEGRGYEAGVDTLTFNAVTGPDPSEEAGTMARFSLSSAVEGGTWSASAVDQQDSTVSLLLSTPADAPIGLYRLSLEASTGYQGSSFVLGHFILLYNPRCPADAVYMDSDQERQEYVLTQQGFIYQGSAKFINGIPWNFGQFEDGILDICLMLLDTNPKFLKNAGQDCSRRSRPVYVGRVVSAMVNCNDDQGVLQGRWDNNYSDGVSPMSWIGSVDILRRWKDYGCQRVKYGQCWVFAAVACTVLRCLGIPTRVVTNFNSAHDQNSNLLIEYFRNESGEIEGNKSEMIWNFHCWVESWMTRPDLEPGYEGWQALDPTPQEKSEGTYCCGPVPVRAIKEGHLNVKYDAPFVFAEVNADVVNWIRQKDGSLRKSINHLVVGLKISTKSVGRDEREDITHTYKYPEGSEEEREAFVRANHLNKLATKEEAQEETGVAMRIRVGQNMTMGSDFDIFAYITNGTAESHECQLLLCARIVSYNGVLGPVCSTNDLLNLTLDPFSENSIPLHILYEKYGDYLTESNLIKVRGLLIEPAANSYVLAERDIYLENPEIKIRVLGEPKQNRKLIAEVSLKNPLPVPLLGCIFTVEGAGLTKDQKSVEVPDPVEAGEQAKVRVDLLPTEVGLHKLVVNFECDKLKAVKGYRNVIIGPA
Transglutaminase catalyzed monodansylcadaverine (MDC) incorporation into mucocidin: The time-dependent uptake of MDC into mucocidin (FIG. 4C) was detected only in the presence of Ca^++ but not in its absence
